The target in assay [1] is T1, Recombinant human CD40-Fc (R&D Systems) (human, UniProt P25942 21-193).
T1 construct: also called CD4O-Fc; not shown: Fc part of the bought fusion protein
The experiment in a line: ELISA, plate coated with 6.25 ng/mL human CD40-Fc, detection with anti-human kappa-HRP; Bmax by one site-specific binding with Hill slope; reference anti-CD40 IgG. Background: An ELISA detects its analyte on a solid surface through an enzyme-linked reagent.

Assay [2] addresses T1, Recombinant human CD40-Fc (R&D Systems). The experiment in a line: ELISA, plate coated with 1.6 ng/mL human CD40-Fc, detection with anti-human kappa-HRP; Bmax by one site-specific binding with Hill slope; reference anti-CD40 IgG.
For assay [3] the target is unchanged. As to the kind of experiment: ELISA on coated human CD40-Fc (1.6 and 6.25 ng/mL). As to the method: The binding specificity of anti-CD40 IgM and anti-CD40 IgG were measured in an ELISA assay using two different antigen densities by the following method. […] All subsequent washes used PBS+0.05% Tween and all incubation steps were performed in block buffer (2% BSA in PBS). Plates were washed three times, blocked for one hour, and then washed again. The plates were then incubated for one hour with four-fold dilutions of anti-CD40-IgG and anti-CD40-IgM. After washing, the plates were incubated with a 1:6000 dilution of anti-human kappa-HRP (Southern Biotech #9230-05) in blocking buffer for 1 hour at room temperature. The plates were again washed 5 times, and then incubated with TMB substrate (BD Biosciences #555214) for 20 minutes at room temperature. The reaction was stopped with 1M H₂SO₄ and absorbance at 450 nm was read on a SpectraMax340 plate reader (Molecular Devices) using SoftMax Pro software.
Bmax was then calculated at each coating density in GraphPad Prism software using One site-Specific binding with Hill slope. […] IgM is thus more sensitive in detecting low CD40 levels than IgG.

T1 sequence (P25942 21-193 limits assumed): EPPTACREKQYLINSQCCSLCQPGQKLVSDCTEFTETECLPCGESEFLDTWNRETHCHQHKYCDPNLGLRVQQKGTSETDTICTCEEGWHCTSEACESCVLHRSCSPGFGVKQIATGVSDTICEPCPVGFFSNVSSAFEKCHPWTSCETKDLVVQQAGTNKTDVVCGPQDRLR

B1: anti-CD40 IgM (antibody, V domains shown)
VH: EVQLQQSGPDLVKPGASVKISCKTSGYTFTEYIMHWVKQSHGNSLEWIGGIIPNNGGTSYNQKFKDKATMTVDKSSSTGYMELRSLTSEDSAVYYCTRREVYGRNYYALDYWGQGTLVTVSS
VL: DIQMTQTTSSLSASLGDRVTITCSASQGINNYLNWYQQKPDGTVKLLIYYTSSLHSGVPSRFSGSGSGTDYSLTISNLEPEDIATYYCQQYSNLPYTFGGGTKLEIK
In the case of B1, the results for the “fold better binding than anti-CD40 IgG (ratio of Bmax)” value in assay [1] and in assay [2] were ~2.3 fold and ~5.5 fold, respectively.

B2: anti-CD40 IgG (antibody, V domains shown)
VH: EVQLQQSGPDLVKPGASVKISCKTSGYTFTEYIMHWVKQSHGNSLEWIGGIIPNNGGTSYNQKFKDKATMTVDKSSSTGYMELRSLTSEDSAVYYCTRREVYGRNYYALDYWGQGTLVTVSS
VL: DIQMTQTTSSLSASLGDRVTITCSASQGINNYLNWYQQKPDGTVKLLIYYTSSLHSGVPSRFSGSGSGTDYSLTISNLEPEDIATYYCQQYSNLPYTFGGGTKLEIK
notes: detection was with anti-human kappa
As to B2, in assay [3], the binding result was “binds”.
